Like-named read-outs stand apart in the source and are kept apart here.
Assays:
casein [1] = target: casein
casein [2] = target: casein; remark: listed apart in the source

Km of casein hydrolysis (Lineweaver-Burk, pH 9.5, 70 °C) (casein [1]): 0.275 mg/mL
Km of casein hydrolysis (Lineweaver-Burk, pH 9.5, 70 °C) (casein [2]): 0.295 mg/mL
Substance: SPPS, serine alkaline protease from Pleurotus sajor-caju strain CTM10057 (enzyme)

Source: paper PMC6604391
